Assay results reported in the supplement of paper PMC9112550, “Optimization of the antimicrobial peptide Bac7 by deep mutational scanning” (BMC Biology, 2022).

Each sequence was assayed on Escherichia coli TOP10 (assay: shrunken log2 fold change of peptide-encoding DNA abundance (4.5 h post-induction vs induction); higher = less antimicrobial activity (less host growth inhibition)). Conditions: time post-induction: 4.5 h; library: site-saturation at positions 5, 18, 19, 20.
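Also: peptides expressed intracellularly from a pBAD plasmid library in pooled LB shake-flask culture, induced with 0.3% L-arabinose, DNA abundance read by NGS, three biological replicates, DESeq2 with apeglm shrinkage.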

| Sequence | shrunken log2 fold change |
| --- | --- |
| RRIRQRPPRLPRPRPRPNRFPRP | -0.00894 |
| RRIRCRPPRLPRPRPRPGDPPRP | 0.132 |
| RRIRHRPPRLPRPRPRPPQLPRP | -0.215 |
| RRIRWRPPRLPRPRPRPFLSPRP | -0.0328 |
| RRIRERPPRLPRPRPRPNGVPRP | -0.2 |
| RRIRIRPPRLPRPRPRPLQTPRP | 0.0711 |
| RRIRDRPPRLPRPRPRPGVIPRP | -0.00423 |
| RRIRNRPPRLPRPRPRPAVNPRP | -0.169 |
| RRIRYRPPRLPRPRPRPWFDPRP | -0.415 |
| RRIRCRPPRLPRPRPRPQGCPRP | -0.0977 |
| RRIRSRPPRLPRPRPRPMSNPRP | 0.129 |
| RRIRPRPPRLPRPRPRPPWRPRP | 0.558 |
| RRIRKRPPRLPRPRPRPLYFPRP | -0.271 |
| RRIRARPPRLPRPRPRPFAKPRP | 0.349 |
| RRIRSRPPRLPRPRPRPQNSPRP | -0.207 |
| RRIRGRPPRLPRPRPRPHQMPRP | 0.532 |
| RRIRWRPPRLPRPRPRPTTLPRP | -0.0826 |
| RRIRYRPPRLPRPRPRPTRPPRP | 0.472 |
| RRIRIRPPRLPRPRPRPINLPRP | -0.146 |
| RRIRTRPPRLPRPRPRPHHNPRP | -0.795 |
| RRIRCRPPRLPRPRPRPCHTPRP | 0.00624 |
| RRIRIRPPRLPRPRPRPAGDPRP | 0.0386 |
| RRIRPRPPRLPRPRPRPDIDPRP | -0.144 |
| RRIRGRPPRLPRPRPRPIHVPRP | -0.315 |
| RRIRYRPPRLPRPRPRPICGPRP | -0.359 |

| Sequence | shrunken log2 fold change |
| --- | --- |
| RRIRNRPPRLPRPRPRPCPDPRP | -0.0721 |
| RRIRYRPPRLPRPRPRPSKRPRP | -0.236 |
| RRIRRRPPRLPRPRPRPDGIPRP | 0.282 |
| RRIRARPPRLPRPRPRPGYFPRP | 0.212 |
| RRIRCRPPRLPRPRPRPCQNPRP | -0.0888 |
| RRIRKRPPRLPRPRPRPFRDPRP | 0.222 |
| RRIRSRPPRLPRPRPRPMIAPRP | 0.0435 |
| RRIRQRPPRLPRPRPRPYTVPRP | -0.104 |
| RRIRERPPRLPRPRPRPHHYPRP | 0.125 |
| RRIRWRPPRLPRPRPRPREMPRP | 0.262 |
| RRIRYRPPRLPRPRPRPSVSPRP | -0.747 |
| RRIRDRPPRLPRPRPRPYSFPRP | -0.0868 |
| RRIRRRPPRLPRPRPRPFLKPRP | -0.0464 |
| RRIRPRPPRLPRPRPRPWYYPRP | -0.102 |
| RRIRDRPPRLPRPRPRPLHRPRP | -0.375 |
| RRIRFRPPRLPRPRPRPTGIPRP | -0.26 |
| RRIRGRPPRLPRPRPRPRRSPRP | 0.767 |
| RRIRSRPPRLPRPRPRPAMGPRP | 0.313 |
| RRIRPRPPRLPRPRPRPKWWPRP | 0.235 |
| RRIRRRPPRLPRPRPRPADRPRP | 0.00311 |
| RRIRHRPPRLPRPRPRPYCQPRP | -0.746 |
| RRIRMRPPRLPRPRPRPSVDPRP | 0.508 |
| RRIRKRPPRLPRPRPRPMLRPRP | 0.308 |
| RRIRYRPPRLPRPRPRPVRNPRP | -0.161 |
| RRIRDRPPRLPRPRPRPVDLPRP | 0.0194 |

| Sequence | shrunken log2 fold change |
| --- | --- |
| RRIRWRPPRLPRPRPRPIKAPRP | 0.00489 |
| RRIRTRPPRLPRPRPRPRTMPRP | 0.0616 |
| RRIRLRPPRLPRPRPRPLCRPRP | -0.496 |
| RRIRARPPRLPRPRPRPGFDPRP | 0.719 |
| RRIRPRPPRLPRPRPRPANEPRP | 0.18 |
| RRIRMRPPRLPRPRPRPSTMPRP | -0.283 |
| RRIRCRPPRLPRPRPRPREVPRP | 0.415 |
| RRIRKRPPRLPRPRPRPCCCPRP | 0.415 |
| RRIRWRPPRLPRPRPRPHEFPRP | -0.0844 |
| RRIRMRPPRLPRPRPRPSWTPRP | -0.0874 |
| RRIRRRPPRLPRPRPRPIKLPRP | -0.128 |
| RRIRYRPPRLPRPRPRPHIPPRP | -0.452 |
| RRIRTRPPRLPRPRPRPCFTPRP | -0.358 |
| RRIRLRPPRLPRPRPRPHRVPRP | 0.0399 |
| RRIRNRPPRLPRPRPRPQRMPRP | 0.0535 |
| RRIRTRPPRLPRPRPRPREEPRP | 0.368 |
| RRIRVRPPRLPRPRPRPVKWPRP | -0.0595 |
| RRIRCRPPRLPRPRPRPTDKPRP | -0.243 |
| RRIRNRPPRLPRPRPRPFTWPRP | -0.62 |
| RRIRYRPPRLPRPRPRPWYRPRP | 0.729 |
| RRIRCRPPRLPRPRPRPDHWPRP | -0.109 |
| RRIRDRPPRLPRPRPRPDMWPRP | 0.0213 |
| RRIRPRPPRLPRPRPRPESFPRP | -0.216 |
| RRIRSRPPRLPRPRPRPYCPPRP | -0.802 |
| RRIRGRPPRLPRPRPRPCEDPRP | 0.0133 |
